Measured values as given in patent US7981863B2, “Treatment of Parkinson's disease with PDGF” (Neuronova AB, priority 2001, dated 2011).

How the values were obtained:
[1] = system: rat neural stem cells from the adult lateral ventricle wall; assay: Expansion of rat neural stem cell cultures, total cell counts at 7 days; format: cell-based; conditions: different concentrations, 7 days; FIG. 24, FIG. 25
Procedure: Neural stem cells were prepared according to the attached protocol. Cells were grown in serum-free medium, subcloned and used between passage 6 and 10. If not otherwise mentioned the experiments consisted of triplets for analysis and were independently repeated at least 3 times.
Basal Medium: Neurobasal medium (NB, Gibco BRL) & B27 supplement (Gibco BRL).
Growth Medium: NB, B27 supplement+20 ng/ml of FGF-2 (R&D Systems)+20 ng/ml EGF (R&D Systems)+2 μg/ml heparin (Sigma, Germany).
Cells were plated in Growth medium at 10.000 cells/ml and after 2 days switched to the experimental condition. Cells were kept under the experimental condition for 7 days.
Adult female Fischer-344 rats (3-4 months; Charles River, Germany) were killed via cervical dislocation, the brains of each rat were removed and stored at 4° C. in DPBS (PAN, Germany) with 4.5 g/L glucose (Merck, Germany) (DPBS/glu). Overlying meninges and blood vessels were removed. Ependymal zone including subependymal/subventricular zone form the lateral wall of the lateral ventricle were aseptically removed. […] Live cells were counted by trypan blue exclusion assay in a hemocytometer. […]
The culture medium containing floating neurospheres was collected in a 15 ml centrifuge tube and centrifuged at 800 rpm. […] An aliquot was counted by trypan blue exclusion assay in a hemocytometer to determine the amount of live and dead cells. […]

Healthy Rats = assay: ICV infusion in healthy rats, BrdU / NeuN labelling; format: in vivo, rat
Procedure: Male rats (12 hours light/dark regime; feeding and drinking ad libitum; 5 animals in standard cage) were infused (Alzet minipumps) in the left lateral ventricle with human recombinant PDGF-BB for 7 days at a daily dose of 36 ng/day (8 animals/group). Human recombinant BDNF (brain derived neurotrophic factor) was used as a positive control (Pencea V et al., J. Neurosci Sep. 1 (2001), 21(17):6706-17). Bromodeoxyuridine (BrdU) was also included in the infusion vehicle (artificial cerebrospinal fluid) to enable measurement of proliferation by quantitation of BrdU incorporation in the DNA. Animals were sacrificed at 7 (proliferation) or 28 days (neurogenesis) after start of treatment and brains were dissected and prepared for sectioning and immunohistochemistry (Pencea V et al., J. Neurosci Sep. 1 (2001), 21(17):6706-17).
Proliferation was measured by BrdU incorporation and diaminobenzidine (DAB) staining of HRP conjugated secondary antibodies (FIG. 7). Cells were counted in a phase contrast microscope. Neural phenotype was assessed by staining for neuronal marker NeuN by immunocytochemistry using a fluorescence readout. The secondary antibodies were labeled with FITC or Alexa Fluor568. In double staining analyses designed to measure neurogenesis, BrdU and NeuN were quantitated by fluorescence (above) and counting of cells was done in a confocal microscope. For further experimental details, see Pencea V et al., J. Neurosci Sep. 1 (2001), 21(17):6706-17. A number of brain regions were analysed.

6-OHDA Lesioned Rats = assay: i.c.v. infusion in 6-OHDA lesioned rats, BrdU / NeuN labelling; format: in vivo, rat; conditions: for numbers of BrdU labelled cells in the denervated striatum: compared to PBS infusion
Procedure: Animal handling and surgical procedures were carried out according to the ethical and regulatory permits set forth by Jordbruksverket and Lund University. Adult female Sprague-Dawley rats (B&K Universal AB) rats weighing 220-250 g, were housed in pairs with a 12 h light-dark cycle with free access to food and water. To lesion the substantia nigra, rats were fixed into a stereotaxic frame and 6-OHDA ([…] in 0.02% ascorbate saline, Sigma) was injected at a rate of 1 μl/min in 2 deposits of 2 and 2.5 μl into the right ascending mesostriatal forebrain bundle at the following coordinates: 4.4 mm caudal to bregma, 1.2 mm lateral to midline, 7.8 mm below dura; 4.0 mm caudal, 0.8 mm lateral, 8.0 mm below dura, respectively (Paxinos and Watson, 1998). Three weeks after 6-OHDA injections, the completeness of the lesion was assessed with the amphetamine-induced rotation test. D-methylamphetamine (2.5 mg, i.p.) was injected 5 min prior to placing the rat in an automated rotormeter bowl that measured the number of rotations over 90 min.
Before implantation, an Alzet Model 2002 osmotic minipump (200 μl; flow rate: 0.5 μl/h, 12 μl/day) was prefilled with 200 μl of compound solution (see below) and placed in a NaCl (0.9%) solution warmed in water bath (37° C.) 36 hrs before implantation. Rats were anesthetized with halothane in a mixture of nitrous oxide/oxygen (70:30) and maintained with 2-3% halothane. For implantation, rats were placed in a stereotaxic frame and the cannula of the Alzet Brain Infusion kit II was placed into the right lateral ventricle (coordinates: AP=−0.3 mm posterior bregma, L=1.5 mm lateral to satura sagittalis, 4.5 mm the dura; Paxinos and Watson, 1998), and secured to the skull with screws and dental cement. The minipump was then placed subcutaneously in the mid-scapular region. The scalp was treated with lidocaine gel before suturing. Twelve days after insertion, the rats were briefly anaesthetized with halothane in order to remove the pump. Removed pumps had the remaining solution volume and weight recorded.
The effects of infused PDGF-BB and BDNF following 6-OHDA lesions were investigated at 2 different time points: at 12 days or 5 weeks after minipump insertion. Rats receiving human PDGF-BB (order # 220-BB-050; 50 μg, R&D Systems) each had 36 ng/d of PDGF dissolved in 0.1 M PBS (3 μg/ml). Rats receiving human recombinant BDNF (order # 248-BD-025; 25 μg, R&D Systems) each had 12 ng/d of BDNF dissolved in 0.1 M PBS (1 μg/ml). BrdU was co-administered with the compound solution in the minipumps by dissolving it into the 0.1 M PBS medium. Control rats received only BrdU/PBS infusions.
Brain tissue was obtained by anesthetizing the rat and transcardially perfusing with 0.9% saline followed by 4% paraformaldehyde (PFA). Brains were stored PFA for 2 hours, then transferred to 20% sucrose PBS and sectioned coronally on a sledge microtome at 30 μm thickness. Free-floating sections were stored in Walter's antifreeze solution at 4° C. until staining.
Following blocking, incubation of monoclonal rat anti-BrdU antibody (Harlan Sera Lab, UK) in 2% blocking solution occurred at a dilution of 1:100 at 4° C. for 36 hrs. The sections were then incubated with biotin-horse-[…] antibody (1:200) (Vector, CA) in 2% blocking solution for 2 hr and visualized with DAB-NiCl Vectastain Elite kit. The procedure for doubling labeling of BrdU with NeuN or TH was similar, except that a monoclonal rat anti-BrdU antibody (1:100; Sigma, Sweden) was incubated either with a monoclonal mouse anti-NeuN antibody (1:100; Chemicon, USA) or with a monoclonal anti-TH antibody (1:1000; Pelfreeze) in the appropriate 2% blocking solution in the dark for 36 to 48 hrs. For immunofluorescent visualization, sections were incubation in secondary antibodies: Cy3-conjugated donkey anti-rat (1:200; Jackson ImmunoResearch, PA) for BrdU; a biotinylated horse anti-mouse antibody (1:200; BA2001, Vector, CA) for NeuN; and a FITC-conjugated goat anti-rat (1:200;) for TH. […]

B1: VEGF-A165: VEGF isoform that can bind to flk-1, flt-1 and neuropilin-1 (protein)
chain: APMAEGGGQNHHEVVKFMDVYQRSYCHPIETLVDIFQEYPDEIEYIFKPSCVPLMRCGGCCNDEGLECVPTEESNITMQIMRIKPHQGQHIGEMSFLQHNKCECRPKKDRARQENPCGPCSERRKHLFVQDPQTCKCSCKNTDSRCKARQLELNERTCRCDKPRR
[1]
  stimulation of proliferation of neural stem cell cultures: significant stimulation

B2: VEGF-A121: VEGF isoform that can only bind to the Flk-1 receptor (protein)
chain: APMAEGGGQNHHEVVKFMDVYQRSYCHPIETLVDIFQEYPDEIEYIFKPSCVPLMRCGGCCNDEGLECVPTEESNITMQIMRIKPHQGQHIGEMSFLQHNKCECRPKKDRARQEKCDKPRR
[1]
  stimulation of proliferation of neural stem cell cultures: significant stimulation

B3: BDNF: Human recombinant BDNF (brain derived neurotrophic factor), used as a positive control (protein, UniProt P23560 19-247, looked up)
Neurotrophic factor BDNF …: APMKEANIRGQGGLAYPGVRTHGTLESVNGPKAGSRGLTSLADTFEHVIEELLDEDQKVRPNEENNKDADLYTSRVMLSSQVPLEPPLLFLLEEYKNYLDAANMSMRVRRHSDPARRGELSVCDSISEWVTAADKKTAVDMSGGTVTVLEKVPVSKGQLKQYFYETKCNPMGYTKEGCRGIDKRHWNSQCRTTQSYVRALTMDSKKRIGWRFIRIDTSCVCTLTIKRGR
Healthy Rats; 7-day group, ICV infusion 7 days, 36 ng/day, mean of two sections, mean +/- sem
  Cell count (BrdU, proliferation) along the lateral ventricle wall: 177 +/−15
Healthy Rats; 28-day group
  number of proliferating cells in the subventricular zone: slight effect
Healthy Rats; 28-day group, in comparison to vehicle treated animals
  neurogenesis in the striatum: significantly increase neurogenesis
Healthy Rats; 28-day group, in comparison to vehicle-treated animals
  BrdU positive cells in the dentate gyrus, the CA1 and the alveus: no significant effect
Healthy Rats; 28-day group, cells counted in 300 × 300 μm squares
  BrdU positive cells in the striatum: 39.8 ± 7.3 (p < 0.01 to vehicle, ANOVA)
6-OHDA Lesioned Rats; 5 weeks, FIG. 15
  absolute number of BrdU/NeuN double labelled cells in the striatum: significantly more neurons
6-OHDA Lesioned Rats; 12 days after infusion, PDGF 36 ng/d, BDNF 12 ng/d
  numbers of BrdU labelled cells in the denervated striatum: significantly elevated
6-OHDA Lesioned Rats; 12 days after infusion, compared to PBS treatment
  numbers of BrdU labelled cells in the lesioned substantia nigra: significantly elevated
6-OHDA Lesioned Rats; Week 5, no statistically significant differences
  BrdU cells in the striatum co-labelled with NeuN (proportion of newly generated neurons): 16.6%
6-OHDA Lesioned Rats; at 5 weeks
  numbers of BrdU labelled cells in the denervated striatum: significant increases
